B1: LINE1-mini (parent)
chain: GGCAGAGCUCAACACAGCGUGGCAAAGUGGCUGUGGCUAGACUGCC

Variants of: B1
Experiment: self-cleavage, relative activity (ratio to wild type); higher = more cleavage; in vitro, sequencing; the parent is a self-cleaving ribozyme

Variant	self-cleavage
G7U A39G	0.06
C10A C45A	0.04
U9A A25G	0.17
U28G A41U	0.52
A4G A14G	0.2
A4C C37G	0.05
C23A U43C	0.08
C15A U20A	0.11
G21U G29C	0.4
G22U C23G	2.27
A14G C46G	0.14
G1A G27C	0.86
G40C C46U	0.08
G21A G27U	1.35
A14C A41U	0.06
G7A G44A	0.19
C8A A26C	0.26
C23G G29A	1.01
A26C G36A	0.14
G7U C31U	0.1
C8A C45U	0.32
A14C A25C	0.07
G7C G17U	0.09
G1U U32G	0.05

Variant	self-cleavage
G2A A14G	0.81
A12U U28A	0.2
A11G C31A	0.02
G5U A39U	0.11
A6U G36U	0.08
G7A C42G	0.05
G5C U28A	0.1
U28C A41U	0.45
C13A U20C	0.04
C3A G17A	0.16
G5U U38G	0.03
A11U U28A	0.11
A4G U20C	0.48
G21A C46A	1.96
C8A G33U	0.18
G1C G35A	0.03
G19C C31G	1.26
U20A C45U	1.4
U9A G27U	0.14
G2C U20C	0.08
A6G C15U	0.17
G22U U32A	0.13
A26C G30A	1.12
G19A G35C	0.21

Variant	self-cleavage
G1A A4C	0.08
G17U C31A	0.88
C10U G40A	0.02
G29A U38A	0.28
G1C C23A	0.16
C15A A26C	0.08
A11U U43A	0.02
C3A G36C	1.01
C10U C46U	0.21
G5C C18G	0.04
A39C A41C	0.62
C18A U28C	0.49
C15A G30U	0.07
A12C C23G	0.02
A26C C42A	0.16
C3A U38G	0.51
C10G G22U	0.11
C3G A14C	0.06
A12G G44A	0.04
C23A G36C	0.07
A11G G44U	0.01
G22A A24G	1.53
C15U C37G	0.08
C15A G29C	0.18

Variant	self-cleavage
A16C G33C	0.05
G5U C31G	0.05
A6G A24U	0.19
C8A G17U	0.27
G29C A39U	0.15
C8U C18G	0.23
G5A A14U	0.1
A25U G33C	0.04
C15U G30U	0.6
U20G G36U	0.07
C18G G30A	0.92
U32C U38A	0.37
U32G G44C	0.06
G1C C18A	0.04
A11U A39C	0.07
G2C A39G	0.09
A16G G44C	0.19
U20C G27C	0.28
A14C G22U	0.06
G7U C46A	0.19
A26C C31G	0.06
G21C C23A	0.43
G17C G30U	0.05
C8G C45U	0.06

Variant	self-cleavage
G17U G29C	0.39
A4U A11C	0.04
A4C G27U	0.07
G1C C10U	0.04
C10G A16G	0.06
G5U A6C	0.16
C3A A39G	0.57
C10U G30U	0.59
C15U C46A	0.92
A26U C45U	0.83
A11C A41U	0.04
A12U A39U	0.16
A26U G36A	0.23
C13A U20A	0.11
A16C G17U	0.08
G7U G44C	0.13
C3A G7C	0.13
C18G G40C	0.05
C3G C13G	0.55
C37A A41G	0.12
A16G C46U	0.55
A24C A39G	0.07
A6G A41G	0.39
A6U A14C	0.11

Variant	self-cleavage
A12U U38A	0.09
G30A C42A	0.14
G1A C45U	1.19
G21C G36C	0.03
G27A U34A	0.19
C23U A26U	0.99
A25U G30U	1.75
U9C C13U	0.03
U32C C37A	0.15
G17U G40C	0.17
A6C A25C	0.5
A14C C15A	0.08
C3U C15A	0.08
U38G U43G	0.02
A6U C13U	0.11
G22U G44U	0.27
U9C G21U	0.04
G5C G44A	0.05
G29A C37G	0.02
A6U G17U	0.26
C15G G17C	0.04
C3U U38C	0.19
A12C G19C	0.02
A25G G40A	0.04

Variant	self-cleavage
C8G A14C	0.11
U9C	0.04
G19A A24U	2.05
A4U U28A	0.19
G1C U28C	0.02
C23A G27U	0.72
C10U G27A	0.27
U9G A41G	0.08
C3G C37A	0.29
G1U A6U	0.22
C8U C46G	0.2
A14U A25G	0.1
C31G G44A	0.05
G40U U43G	0.47
A16C G30C	0.12
C3U A41C	0.09
G27A U43A	0.08
A6U G21C	0.52
A14G U38C	0.15
G19C G30A	0.91
C23U G36U	0.04
C8U A41U	0.47
G35U G40A	0.09
